Reference: IntAct's records for PubMed 21203436

B1: Protein MKS1 (Arabidopsis thaliana (Mouse-ear cress)), Q8LGD5 (parent)
chain: MDPSEYFAGGNPSDQQNQKRQLQICGPRPSPLSVHKDSHKIKKPPKHPAPPPNRDQPPPYIPREPVVIYAVSPKVVHATASEFMNVVQRLTGISSGVFLESGGGGDVSPAARLASTENASPRGGKEPAARDETVEINTAMEEAAEFGGYAPGILSPSPALLPTASTGIFSPMYHQGGMFSPAIPLGLFSPAGFMSPFRSPGFTSLVASPTFADFFSHIWDQD
partner: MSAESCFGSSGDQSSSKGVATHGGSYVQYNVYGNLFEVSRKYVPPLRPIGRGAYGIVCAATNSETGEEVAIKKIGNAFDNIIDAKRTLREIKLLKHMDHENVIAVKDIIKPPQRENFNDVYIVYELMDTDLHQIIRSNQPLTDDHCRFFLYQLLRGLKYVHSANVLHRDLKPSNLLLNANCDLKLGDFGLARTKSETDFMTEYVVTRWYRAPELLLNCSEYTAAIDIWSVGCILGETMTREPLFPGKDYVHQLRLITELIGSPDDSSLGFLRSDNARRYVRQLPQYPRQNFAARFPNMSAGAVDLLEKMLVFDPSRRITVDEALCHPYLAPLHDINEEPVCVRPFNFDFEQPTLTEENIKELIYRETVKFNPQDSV

Variants of: B1
Settings: with mpk4_arath MPK4, Q39024

| Variant | effect of a mutation on the interaction |
| --- | --- |
| MDPSEYFAGGNPSDQQNQKRQLQICGPRASPLSVHKDSHKIKKPPKHPAPPPNRDQPPPYIPREPVVIYAVSPKVVHATASEFMNVVQRLTGISSGVFLESGGGGDVSPAARLASTENASPRGGKEPAARDETVEINTAMEEAAEFGGYAPGILSPSPALLPTASTGIFSPMYHQGGMFSPAIPLGLFSPAGFMSPFRSPGFTSLVASPTFADFFSHIWDQD [P29A] | disrupting interaction |
| MDPSEYFAGGNPSDQQNQKRQLQICGPRPSPASVHKDSHKIKKPPKHPAPPPNRDQPPPYIPREPVVIYAVSPKVVHATASEFMNVVQRLTGISSGVFLESGGGGDVSPAARLASTENASPRGGKEPAARDETVEINTAMEEAAEFGGYAPGILSPSPALLPTASTGIFSPMYHQGGMFSPAIPLGLFSPAGFMSPFRSPGFTSLVASPTFADFFSHIWDQD [L32A] | disrupting interaction |
| MDPSEYFAGGNPSDQQNQKRQLQICGPRPSPLSVHKDAHKIKKPPKHPAPPPNRDQPPPYIPREPVVIYAVSPKVVHATASEFMNVVQRLTGISSGVFLESGGGGDVSPAARLASTENASPRGGKEPAARDETVEINTAMEEAAEFGGYAPGILSPSPALLPTASTGIFSPMYHQGGMFSPAIPLGLFSPAGFMSPFRSPGFTSLVASPTFADFFSHIWDQD [S38A] | disrupting interaction |

More lines, now with the values ahead:

| effect of a mutation on the interaction | Variant |
| --- | --- |
| disrupting interaction | MDPSEYFAGGNPSDQQNQKRQLQICGPRPSPLSVHKDSHAIKKPPKHPAPPPNRDQPPPYIPREPVVIYAVSPKVVHATASEFMNVVQRLTGISSGVFLESGGGGDVSPAARLASTENASPRGGKEPAARDETVEINTAMEEAAEFGGYAPGILSPSPALLPTASTGIFSPMYHQGGMFSPAIPLGLFSPAGFMSPFRSPGFTSLVASPTFADFFSHIWDQD [K40A] |
| disrupting interaction | MDPSEYFAGGNPSDQQNQARQLQICGPRPSPLSVHKDSHKIKKPPKHPAPPPNRDQPPPYIPREPVVIYAVSPKVVHATASEFMNVVQRLTGISSGVFLESGGGGDVSPAARLASTENASPRGGKEPAARDETVEINTAMEEAAEFGGYAPGILSPSPALLPTASTGIFSPMYHQGGMFSPAIPLGLFSPAGFMSPFRSPGFTSLVASPTFADFFSHIWDQD [K19A] |
| disrupting interaction | MDPSEYFAGGNPSDQQNQKRQLQICGPAPSPLSVHKDSHKIKKPPKHPAPPPNRDQPPPYIPREPVVIYAVSPKVVHATASEFMNVVQRLTGISSGVFLESGGGGDVSPAARLASTENASPRGGKEPAARDETVEINTAMEEAAEFGGYAPGILSPSPALLPTASTGIFSPMYHQGGMFSPAIPLGLFSPAGFMSPFRSPGFTSLVASPTFADFFSHIWDQD [R28A] |
